PMC5090064, “Coordinated regulation of the ESCRT-III component CHMP4C by the chromosomal passenger complex and centralspindlin during cytokinesis” (Open Biology, 2016)
Blank lines part the entries; values can stand above or below the molecule they belong to.

Columns and labels:
MKLP1 = MKLP1 (UniProt Q02241); experiment: GFP-Trap pull-down, Flag western blot
[1] = target: T1, CPC mini-complex (Survivin full-length, Borealin full-length and INCENP 1–57) (UniProt Q53HL2 1-280; O15392 1-142; Q9NQS7 1-57); experiment: atomic force microscopy; purified proteins on mica surfaces without lipid bilayers, imaged under fluid at room temperature; settings: both partners purified
T1 construct: Borealin, full-length, TEV-cleavable His-tagged, pETM vector; Survivin, full-length, 3C-cleavable GFP-tagged, pRSET vector; INCENP residues 1–57 (methods; the results say the first 58 amino acids), untagged, pMCNcs vector; Results call the INCENP piece INCENP 1–58, methods 1–57; also called mini-CPC; copies: + +
T1 sequence (Q53HL2 whole entry, chain 1 of 3, the tested form may be a part): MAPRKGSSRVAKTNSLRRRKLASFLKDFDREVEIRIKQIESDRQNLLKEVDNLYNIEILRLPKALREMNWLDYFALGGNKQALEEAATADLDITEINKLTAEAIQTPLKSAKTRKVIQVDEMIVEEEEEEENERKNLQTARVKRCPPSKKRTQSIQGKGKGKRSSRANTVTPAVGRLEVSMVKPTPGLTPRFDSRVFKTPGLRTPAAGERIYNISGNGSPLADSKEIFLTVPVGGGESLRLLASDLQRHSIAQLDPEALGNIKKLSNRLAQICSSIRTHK
T1 sequence (O15392 whole entry, chain 2 of 3, the tested form may be a part): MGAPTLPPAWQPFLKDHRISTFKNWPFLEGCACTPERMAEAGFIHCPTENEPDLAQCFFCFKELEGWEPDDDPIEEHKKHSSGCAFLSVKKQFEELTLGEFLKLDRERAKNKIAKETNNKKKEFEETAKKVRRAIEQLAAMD
T1 sequence (Q9NQS7 1-57, chain 3 of 3): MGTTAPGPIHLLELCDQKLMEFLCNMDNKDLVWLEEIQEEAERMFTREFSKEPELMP

binding against the reference (MKLP1; reference: S210A, sites S214,S215): stronger
binding against the reference (MKLP1; reference: wild type, sites S210,S214,S215): stronger
Molecule: CHMP4C (from UniProt Q96CF2) StripleA (S210A, S214A, S215A)

B1: CHMP4C (purified recombinant, full-length) (natural protein, human, UniProt Q96CF2 1-233, looked up)
chain: MSKLGKFFKGGGSSKSRAAPSPQEALVRLRETEEMLGKKQEYLENRIQREIALAKKHGTQNKRAALQALKRKKRFEKQLTQIDGTLSTIEFQREALENSHTNTEVLRNMGFAAKAMKSVHENMDLNKIDDLMQEITEQQDIAQEISEAFSQRVGFGDDFDEDELMAELEELEQEELNKKMTNIRLPNVPSSSLPAQPNRKPGMSSTARRSRAASSQRAEEEDDDIKQLAAWAT
notes: CHMP4C, human, full-length ORF cloned into pET-His6-msfGFP as a TEV-cleavable His-tagged protein; also called His6-GFP::CHMP4C; purified CHMP4C; source: E. coli BL21 Gold, purified (Ni-NTA, TEV cleavage, Superdex 200); not shown: His6, N-terminal, cleaved
binding result [1]: binds
